biological target: T1, human RAGE-Fc fusion protein (human, UniProt Q15109 23-344); assay: competition ELISA on human RAGE-Fc; labelled competitor not named
T1 construct: also called hRAGE-Fc; huRAGE-Fc; not shown: Fc domain of human IgG

| ED50 [nM] | Binder |
| --- | --- |
| 5 | V2.3 (I48M) / v3.0 (antibody, V domains shown, XT-H2 construct expressed in COS cells; also called XT-H2 hVH V2.3 + hVL V3.0) VH: QVQLVQSGAEVKKPGASVKVSCKASGYTFTTYWMHWVRQRPGQGLYWMGYINPSTGYTEYNQKFKDRVTMTADTSISTAYMELSRLRSDDTAVYYCARWAGYTIDYWGQGTLVTVSS VL: DIVMTQSPDSLAVSLGERATINCKSTKSLLNSDGFTYLDWYQQKPGQPPKLLIYLVSDRFSGVPDRFSGSGSGTDFTLTISSLQAEDVAVYYCFQSNSLPLTFGGGTKVEIK |
| 5 | V2.2 (Y46E) / v3.0 (antibody, V domains shown, XT-H2 construct expressed in COS cells; also called XT-H2 hVH V2.2 + hVL V3.0) VH: QVQLVQSGAEVKKPGASVKVSCKASGYTFTTYWMHWVRQRPGQGLEWIGYINPSTGYTEYNQKFKDRVTMTADTSISTAYMELSRLRSDDTAVYYCARWAGYTIDYWGQGTLVTVSS VL: DIVMTQSPDSLAVSLGERATINCKSTKSLLNSDGFTYLDWYQQKPGQPPKLLIYLVSDRFSGVPDRFSGSGSGTDFTLTISSLQAEDVAVYYCFQSNSLPLTFGGGTKVEIK |
| 7 | mVH / v2.0 (V2, L4, S48) (antibody, V domains shown, XT-H2 construct expressed in COS cells; also called XT-H2 mVH + hVL V2.0) VH: QVQLQQSGAELAKPGASVKMSCKASGYTFTTYWMHWVKQRPGQGLYWIGYINPSTGYTEYNQKFKDKATLTADKSSSTAYMQLSSLTSEDSAVYYCARWAGYTIDYWGQGTSVTVSS VL: DVVLTQTPLSLSVTPGQPASISCKSTKSLLNSDGFTYLDWYLQKPGQSPQLLIYLVSDRFSGVPDRFSGSGSGTDFTLKISRVEAEDVGVYYCFQSNSLPLTFGGGTKVEIK |
| 4.5 | V2.3 (I48M) / v2.0 (antibody, V domains shown, XT-H2 construct expressed in COS cells; also called XT-H2 hVH V2.3 + hVL V2.0) VH: QVQLVQSGAEVKKPGASVKVSCKASGYTFTTYWMHWVRQRPGQGLYWMGYINPSTGYTEYNQKFKDRVTMTADTSISTAYMELSRLRSDDTAVYYCARWAGYTIDYWGQGTLVTVSS VL: DVVLTQTPLSLSVTPGQPASISCKSTKSLLNSDGFTYLDWYLQKPGQSPQLLIYLVSDRFSGVPDRFSGSGSGTDFTLKISRVEAEDVGVYYCFQSNSLPLTFGGGTKVEIK |
| 6 | V2.2 (Y46E) / mVL (antibody, V domains shown, XT-H2 construct expressed in COS cells; also called XT-H2 hVH V2.2 + mVL) VH: QVQLVQSGAEVKKPGASVKVSCKASGYTFTTYWMHWVRQRPGQGLEWIGYINPSTGYTEYNQKFKDRVTMTADTSISTAYMELSRLRSDDTAVYYCARWAGYTIDYWGQGTLVTVSS VL: DVVLTQTPLSLPVNIGDQASISCKSTKSLLNSDGFTYLDWYLQKPGQSPQLLIYLVSDRFSGVPDRFSGSGSGTDFTLTISRVEAEDLGVYYCFQSNSLPLTFGSGTKLEIK |
| 5 | V2.3 (I48M) / v2.1 (antibody, V domains shown, XT-H2 construct expressed in COS cells; also called XT-H2 hVH V2.3 + hVL V2.1) VH: QVQLVQSGAEVKKPGASVKVSCKASGYTFTTYWMHWVRQRPGQGLYWMGYINPSTGYTEYNQKFKDRVTMTADTSISTAYMELSRLRSDDTAVYYCARWAGYTIDYWGQGTLVTVSS VL: DIVMTQTPLSLSVTPGQPASISCKSTKSLLNSDGFTYLDWYLQKPGQSPQLLIYLVSDRFSGVPDRFSGSGSGTDFTLKISRVEAEDVGVYYCFQSNSLPLTFGGGTKVEIK |
| 10 | V2.3 (I48M) / mVL (antibody, V domains shown, XT-H2 construct expressed in COS cells; also called XT-H2 hVH V2.3 + mVL) VH: QVQLVQSGAEVKKPGASVKVSCKASGYTFTTYWMHWVRQRPGQGLYWMGYINPSTGYTEYNQKFKDRVTMTADTSISTAYMELSRLRSDDTAVYYCARWAGYTIDYWGQGTLVTVSS VL: DVVLTQTPLSLPVNIGDQASISCKSTKSLLNSDGFTYLDWYLQKPGQSPQLLIYLVSDRFSGVPDRFSGSGSGTDFTLTISRVEAEDLGVYYCFQSNSLPLTFGSGTKLEIK |
| 5 | V2.2 (Y46E) / v2.1 (antibody, V domains shown, XT-H2 construct expressed in COS cells; also called XT-H2 hVH V2.2 + hVL V2.1) VH: QVQLVQSGAEVKKPGASVKVSCKASGYTFTTYWMHWVRQRPGQGLEWIGYINPSTGYTEYNQKFKDRVTMTADTSISTAYMELSRLRSDDTAVYYCARWAGYTIDYWGQGTLVTVSS VL: DIVMTQTPLSLSVTPGQPASISCKSTKSLLNSDGFTYLDWYLQKPGQSPQLLIYLVSDRFSGVPDRFSGSGSGTDFTLKISRVEAEDVGVYYCFQSNSLPLTFGGGTKVEIK |
| 4 | V2.2 (Y46E) / v2.0 (antibody, V domains shown, XT-H2 construct expressed in COS cells; also called XT-H2 hVH V2.2 + hVL V2.0) VH: QVQLVQSGAEVKKPGASVKVSCKASGYTFTTYWMHWVRQRPGQGLEWIGYINPSTGYTEYNQKFKDRVTMTADTSISTAYMELSRLRSDDTAVYYCARWAGYTIDYWGQGTLVTVSS VL: DVVLTQTPLSLSVTPGQPASISCKSTKSLLNSDGFTYLDWYLQKPGQSPQLLIYLVSDRFSGVPDRFSGSGSGTDFTLKISRVEAEDVGVYYCFQSNSLPLTFGGGTKVEIK |

More lines, now with the values behind:

| Binder | ED50 [nM] |
| --- | --- |
| V2.0 (R40, Y46, I48, A71, K73) / v3.0 DPK24 grafted (antibody, V domains shown, XT-H2 construct expressed in COS cells; also called XT-H2 hVH V2.0 + hVL V3.0) VH: QVQLVQSGAEVKKPGASVKVSCKASGYTFTTYWMHWVRQRPGQGLYWIGYINPSTGYTEYNQKFKDRVTMTADTSISTAYMELSRLRSDDTAVYYCARWAGYTIDYWGQGTLVTVSS VL: DIVMTQSPDSLAVSLGERATINCKSTKSLLNSDGFTYLDWYQQKPGQPPKLLIYLVSDRFSGVPDRFSGSGSGTDFTLTISSLQAEDVAVYYCFQSNSLPLTFGGGTKVEIK | 8 |
| V2.1 (R40A) / v3.0 (antibody, V domains shown, XT-H2 construct expressed in COS cells; also called XT-H2 hVH V2.1 + hVL V3.0) VH: QVQLVQSGAEVKKPGASVKVSCKASGYTFTTYWMHWVRQAPGQGLYWIGYINPSTGYTEYNQKFKDRVTMTADTSISTAYMELSRLRSDDTAVYYCARWAGYTIDYWGQGTLVTVSS VL: DIVMTQSPDSLAVSLGERATINCKSTKSLLNSDGFTYLDWYQQKPGQPPKLLIYLVSDRFSGVPDRFSGSGSGTDFTLTISSLQAEDVAVYYCFQSNSLPLTFGGGTKVEIK | 5 |
| V2.0 (R40, Y46, I48, A71, K73) / v2.0 (V2, L4, S48) (antibody, V domains shown, XT-H2 construct expressed in COS cells; also called XT-H2 hVH V2.0 + hVL V2.0) VH: QVQLVQSGAEVKKPGASVKVSCKASGYTFTTYWMHWVRQRPGQGLYWIGYINPSTGYTEYNQKFKDRVTMTADTSISTAYMELSRLRSDDTAVYYCARWAGYTIDYWGQGTLVTVSS VL: DVVLTQTPLSLSVTPGQPASISCKSTKSLLNSDGFTYLDWYLQKPGQSPQLLIYLVSDRFSGVPDRFSGSGSGTDFTLKISRVEAEDVGVYYCFQSNSLPLTFGGGTKVEIK | 5 |
| V2.1 (R40A) / mVL (antibody, V domains shown, XT-H2 construct expressed in COS cells; also called XT-H2 hVH V2.1 + mVL) VH: QVQLVQSGAEVKKPGASVKVSCKASGYTFTTYWMHWVRQAPGQGLYWIGYINPSTGYTEYNQKFKDRVTMTADTSISTAYMELSRLRSDDTAVYYCARWAGYTIDYWGQGTLVTVSS VL: DVVLTQTPLSLPVNIGDQASISCKSTKSLLNSDGFTYLDWYLQKPGQSPQLLIYLVSDRFSGVPDRFSGSGSGTDFTLTISRVEAEDLGVYYCFQSNSLPLTFGSGTKLEIK | 8 |
| V2.0 (R40, Y46, I48, A71, K73) / v2.1 (V2I, L4M) (antibody, V domains shown, XT-H2 construct expressed in COS cells; also called XT-H2 hVH V2.0 + hVL V2.1) VH: QVQLVQSGAEVKKPGASVKVSCKASGYTFTTYWMHWVRQRPGQGLYWIGYINPSTGYTEYNQKFKDRVTMTADTSISTAYMELSRLRSDDTAVYYCARWAGYTIDYWGQGTLVTVSS VL: DIVMTQTPLSLSVTPGQPASISCKSTKSLLNSDGFTYLDWYLQKPGQSPQLLIYLVSDRFSGVPDRFSGSGSGTDFTLKISRVEAEDVGVYYCFQSNSLPLTFGGGTKVEIK | 5 |
| V2.1 (R40A) / v2.1 (antibody, V domains shown, XT-H2 construct expressed in COS cells; also called XT-H2 hVH V2.1 + hVL V2.1) VH: QVQLVQSGAEVKKPGASVKVSCKASGYTFTTYWMHWVRQAPGQGLYWIGYINPSTGYTEYNQKFKDRVTMTADTSISTAYMELSRLRSDDTAVYYCARWAGYTIDYWGQGTLVTVSS VL: DIVMTQTPLSLSVTPGQPASISCKSTKSLLNSDGFTYLDWYLQKPGQSPQLLIYLVSDRFSGVPDRFSGSGSGTDFTLKISRVEAEDVGVYYCFQSNSLPLTFGGGTKVEIK | 7.5 |
| V2.1 (R40A) / v2.0 (antibody, V domains shown, XT-H2 construct expressed in COS cells; also called XT-H2 hVH V2.1 + hVL V2.0) VH: QVQLVQSGAEVKKPGASVKVSCKASGYTFTTYWMHWVRQAPGQGLYWIGYINPSTGYTEYNQKFKDRVTMTADTSISTAYMELSRLRSDDTAVYYCARWAGYTIDYWGQGTLVTVSS VL: DVVLTQTPLSLSVTPGQPASISCKSTKSLLNSDGFTYLDWYLQKPGQSPQLLIYLVSDRFSGVPDRFSGSGSGTDFTLKISRVEAEDVGVYYCFQSNSLPLTFGGGTKVEIK | 4 |
| V2.0 (R40, Y46, I48, A71, K73) / mVL (antibody, V domains shown, XT-H2 construct expressed in COS cells; also called XT-H2 hVH V2.0 + mVL) VH: QVQLVQSGAEVKKPGASVKVSCKASGYTFTTYWMHWVRQRPGQGLYWIGYINPSTGYTEYNQKFKDRVTMTADTSISTAYMELSRLRSDDTAVYYCARWAGYTIDYWGQGTLVTVSS VL: DVVLTQTPLSLPVNIGDQASISCKSTKSLLNSDGFTYLDWYLQKPGQSPQLLIYLVSDRFSGVPDRFSGSGSGTDFTLTISRVEAEDLGVYYCFQSNSLPLTFGSGTKLEIK | 8 |

biological target: T1, human RAGE-Fc fusion protein; assay: competition ELISA on coated hRAGE-Fc; competitor 12.5 ng/ml biotinylated rat XT-M4
Experimental: ELISA plates were coated overnight with 1 ug/ml human RAGE-Fc. […] Briefly, plates were coated overnight with 1 ug/ml human RAGE-Fc.

| IC50 [µg/mL] | Binder |
| --- | --- |
| 8.5 | humanized XT-M4 hVH-V2.0 / hVL-V2.7 (antibody, human IgG1, V domains shown) VH: EVQLVESGGGLVQPGGSLRLSCAASGFTFNNYWMTWVRQAPGKGLEWVASIDNSGDNTYYPDSVKDRFTISRDNAKNSLYLQMNSLRAEDTAVYYCARGGDITTGFDYWGQGTLVTVSS VL: DIQMTQSPSSLSASVGDRVTITCRASQDVGIYVNWYQQKPGKAPKRLIYRATNLADGVPSRFSGSGSGTDFTLTISSLQPEDFATYYCLEFDEHPLTFGGGTKVEIK |
| 2.9 | humanized XT-M4 hVH-V2.0 / hVL-V2.4 (antibody, human IgG1, V domains shown) VH: EVQLVESGGGLVQPGGSLRLSCAASGFTFNNYWMTWVRQAPGKGLEWVASIDNSGDNTYYPDSVKDRFTISRDNAKNSLYLQMNSLRAEDTAVYYCARGGDITTGFDYWGQGTLVTVSS VL: DIQMTQSPSSLSASVGDRVTITCRASQDVGIYVNWYQQKPGKAPKLLIYRATNLADGVPSRFSGSRSGTDFTLTISSLQPEDFATYYCLEFDEHPLTFGGGTKVEIK |
| 4.5 to 8.5 | humanized XT-M4 hVH-V1.0 / hVL-V2.4 (antibody, human IgG1, V domains shown) VH: EVQLVESGGGLVQPGGSLRLSCAASGFTFNNYWMTWVRQAPGKGLEWVASINNSGDNTYYPDSVKDRFTISRDNAKNSLYLQMNSLRSEDTAVYYCARGGDITTGFDYWGQGTLVTVSS VL: DIQMTQSPSSLSASVGDRVTITCRASQDVGIYVNWYQQKPGKAPKLLIYRATNLADGVPSRFSGSRSGTDFTLTISSLQPEDFATYYCLEFDEHPLTFGGGTKVEIK |
| 4 to 9.5 | humanized XT-M4 hVH-V1.0 / hVL-V2.7 (antibody, human IgG1, V domains shown) VH: EVQLVESGGGLVQPGGSLRLSCAASGFTFNNYWMTWVRQAPGKGLEWVASINNSGDNTYYPDSVKDRFTISRDNAKNSLYLQMNSLRSEDTAVYYCARGGDITTGFDYWGQGTLVTVSS VL: DIQMTQSPSSLSASVGDRVTITCRASQDVGIYVNWYQQKPGKAPKRLIYRATNLADGVPSRFSGSGSGTDFTLTISSLQPEDFATYYCLEFDEHPLTFGGGTKVEIK |
